Source: article PMC4338608

How the values were obtained:
Assay in all cases: resonant mirror detection
[1] = molecular target: GST-NHE1cd mutant M1 (K513KKQETKR→AAAQETAA) (rat (Rattus norvegicus))
[2] = molecular target: GST-NHE1cd mutant M2 (R556FNKKYVKK→…) (rat (Rattus norvegicus))
[3] = molecular target: GST-NHE1cd mutant M3 (K513KK→AAA) (rat (Rattus norvegicus))
[4] = molecular target: recombinant human calmodulin with four extra N-terminal amino acids Gly-Ser-His-Met (human)

Substance | Kd [1] [nM] | kon [1] [M⁻¹ s⁻¹] | Kd [2] [nM] | kon [2] [M⁻¹ s⁻¹] | Kd [3] [nM] | koff [3] [s⁻¹] | kon [3] [M⁻¹ s⁻¹] | Kd [4] [nM]
exon 5-encoded human 4.1R^80 polypeptide (GST fusion) (domain or fragment) | 4790 | 250 | 26100 | 240 |  |  |  | 
recombinant 4.1R FERM domain (from UniProt P11171 210-488) (domain or fragment) |  |  |  |  | 545 | 0.065 | 120000 | 100
